# T1: ARHGAP21, Q5T5U3
# T1 sequence (Q5T5U3 45-169, limits assumed, looked up): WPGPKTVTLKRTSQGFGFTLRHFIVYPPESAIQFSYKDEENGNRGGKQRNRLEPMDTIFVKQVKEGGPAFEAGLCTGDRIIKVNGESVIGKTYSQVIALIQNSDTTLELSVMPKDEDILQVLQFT
# T2: ARHGEF11, O15085
# T2 sequence (O15085 42-136, limits assumed, looked up): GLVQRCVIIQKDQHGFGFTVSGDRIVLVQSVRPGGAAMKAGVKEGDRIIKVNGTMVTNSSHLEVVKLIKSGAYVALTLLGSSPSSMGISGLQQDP
# T3: DFNB31_3, Q9P202
# T3 sequence (Q9P202 811-907, limits assumed, looked up): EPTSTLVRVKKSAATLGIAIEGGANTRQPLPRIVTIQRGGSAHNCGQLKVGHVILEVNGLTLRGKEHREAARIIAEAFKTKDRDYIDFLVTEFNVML
# T4: GRIP1_2, Q9Y3R0
# T4 sequence (Q9Y3R0 145-248, limits assumed, looked up): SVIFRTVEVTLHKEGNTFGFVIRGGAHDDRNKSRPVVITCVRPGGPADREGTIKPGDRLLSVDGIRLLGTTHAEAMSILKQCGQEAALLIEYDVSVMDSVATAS
# T5: GRIP1_7, Q9Y3R0
# T5 sequence (Q9Y3R0 999-1096, limits assumed, looked up): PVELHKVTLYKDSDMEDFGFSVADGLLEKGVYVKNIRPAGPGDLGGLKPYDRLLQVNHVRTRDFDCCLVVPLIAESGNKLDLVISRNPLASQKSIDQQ
# T6: LNX2_3, Q8N448
# T6 sequence (Q8N448 463-564, limits assumed, looked up): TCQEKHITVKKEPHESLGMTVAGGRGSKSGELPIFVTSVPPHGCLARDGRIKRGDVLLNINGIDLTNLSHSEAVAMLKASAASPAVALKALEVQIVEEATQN
# T7: MPDZ_10, O75970
# T7 sequence (O75970 1624-1722, limits assumed, looked up): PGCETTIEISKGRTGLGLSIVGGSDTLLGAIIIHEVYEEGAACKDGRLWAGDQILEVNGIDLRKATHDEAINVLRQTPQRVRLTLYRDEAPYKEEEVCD
# T8: MPDZ_12, O75970
# T8 sequence (O75970 1857-1958, limits assumed, looked up): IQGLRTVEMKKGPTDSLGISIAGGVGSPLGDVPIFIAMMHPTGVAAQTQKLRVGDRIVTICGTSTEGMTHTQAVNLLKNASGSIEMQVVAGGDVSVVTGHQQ
# T9: NHERF3_4, Q5T2W1
# T9 sequence (Q5T2W1 373-468, limits assumed, looked up): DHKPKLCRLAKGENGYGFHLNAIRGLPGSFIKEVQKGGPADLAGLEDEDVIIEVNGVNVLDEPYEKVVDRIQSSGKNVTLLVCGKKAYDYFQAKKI
# T10: PARD3B_1, Q8TEW8
# T10 sequence (Q8TEW8 196-299, limits assumed, looked up): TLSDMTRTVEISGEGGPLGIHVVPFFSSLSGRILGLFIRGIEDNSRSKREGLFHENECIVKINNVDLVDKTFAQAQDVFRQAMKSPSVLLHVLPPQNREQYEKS
# T11: PCLO, Q9Y6V0
# T11 sequence (Q9Y6V0 4491-4600, limits assumed, looked up): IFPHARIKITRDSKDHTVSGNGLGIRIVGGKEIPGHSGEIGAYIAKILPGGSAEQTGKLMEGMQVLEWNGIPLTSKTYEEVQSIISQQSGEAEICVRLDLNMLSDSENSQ
# T12: SIPA1L2, Q9P2F8
# T12 sequence (Q9P2F8 945-1036, limits assumed, looked up): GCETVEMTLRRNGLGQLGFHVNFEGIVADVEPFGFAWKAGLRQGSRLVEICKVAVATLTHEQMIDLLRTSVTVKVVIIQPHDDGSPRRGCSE
# T13: SNTB1, Q13884
# T13 sequence (Q13884 107-205, limits assumed, looked up): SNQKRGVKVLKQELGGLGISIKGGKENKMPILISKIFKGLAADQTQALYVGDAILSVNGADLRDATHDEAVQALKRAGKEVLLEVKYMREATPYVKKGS
# Assays:
# Assay in all cases: holdup assay
# Design in all cases: key: below the threshold = too weak to quantify, mostly under pKd 3.1 to 4
# [1] = molecular target: T1, ARHGAP21, Q5T5U3
# [2] = molecular target: T2, ARHGEF11, O15085
# [3] = molecular target: T3, DFNB31_3, Q9P202
# [4] = molecular target: DLG4_2, P78352
# DLG4_2, P78352, sequence (P78352 155-259): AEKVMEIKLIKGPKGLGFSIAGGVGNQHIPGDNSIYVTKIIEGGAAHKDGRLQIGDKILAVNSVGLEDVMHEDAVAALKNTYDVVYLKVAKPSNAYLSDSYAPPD
# [5] = molecular target: FRMPD2_1, Q68DX3
# FRMPD2_1, Q68DX3, sequence (Q68DX3 770-861): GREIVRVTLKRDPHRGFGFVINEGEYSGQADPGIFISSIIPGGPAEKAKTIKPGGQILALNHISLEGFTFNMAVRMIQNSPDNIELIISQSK
# [6] = molecular target: T4, GRIP1_2, Q9Y3R0
# [7] = molecular target: T5, GRIP1_7, Q9Y3R0
# [8] = molecular target: GRIP2_5, Q9C0E4
# GRIP2_5, Q9C0E4, sequence (Q9C0E4 544-642): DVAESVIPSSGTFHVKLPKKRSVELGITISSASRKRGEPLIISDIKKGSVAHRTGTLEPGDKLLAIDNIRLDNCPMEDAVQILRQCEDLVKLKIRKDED
# [9] = molecular target: IL16_3, Q14005
# IL16_3, Q14005, sequence (Q14005 1107-1207): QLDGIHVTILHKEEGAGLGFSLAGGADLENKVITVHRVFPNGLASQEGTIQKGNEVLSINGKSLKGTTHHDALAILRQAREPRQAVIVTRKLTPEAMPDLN
# [10] = molecular target: IL16_4, Q14005
# IL16_4, Q14005, sequence (Q14005 1229-1329): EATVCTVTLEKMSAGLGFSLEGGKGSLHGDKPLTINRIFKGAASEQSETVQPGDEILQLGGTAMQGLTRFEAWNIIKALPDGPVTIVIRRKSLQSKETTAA
# [11] = molecular target: Inadl_3, Q8NI35
# Inadl_3, Q8NI35, sequence (Q8NI35 359-469): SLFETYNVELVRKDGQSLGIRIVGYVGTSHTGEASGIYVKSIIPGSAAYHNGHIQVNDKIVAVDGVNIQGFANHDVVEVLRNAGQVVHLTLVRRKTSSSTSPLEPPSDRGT
# [12] = molecular target: LAP2, Q96RT1
# LAP2, Q96RT1, sequence (Q96RT1 other isoform, or with tags, fused parts or gaps): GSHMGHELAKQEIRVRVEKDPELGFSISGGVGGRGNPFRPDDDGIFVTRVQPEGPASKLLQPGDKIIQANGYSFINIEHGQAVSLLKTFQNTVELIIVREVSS
# [13] = molecular target: LNX1_3, Q8TBB1
# LNX1_3, Q8TBB1, sequence (Q8TBB1 500-596): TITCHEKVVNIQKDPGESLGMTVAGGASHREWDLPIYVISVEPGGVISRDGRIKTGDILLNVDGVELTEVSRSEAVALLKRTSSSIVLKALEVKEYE
# [14] = molecular target: T6, LNX2_3, Q8N448
# [15] = molecular target: MAGI2_3, Q86UL8
# MAGI2_3, Q86UL8, sequence (Q86UL8 600-682): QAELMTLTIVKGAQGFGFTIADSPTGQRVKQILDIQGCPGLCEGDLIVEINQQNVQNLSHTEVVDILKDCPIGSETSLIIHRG
# [16] = molecular target: MAGI2_6, Q86UL8
# MAGI2_6, Q86UL8, sequence (Q86UL8 1141-1229): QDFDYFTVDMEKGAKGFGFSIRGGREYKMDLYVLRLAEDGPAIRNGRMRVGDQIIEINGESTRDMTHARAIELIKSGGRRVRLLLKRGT
# [17] = molecular target: MAST1, Q9Y2H9
# MAST1, Q9Y2H9, sequence (Q9Y2H9 962-1065): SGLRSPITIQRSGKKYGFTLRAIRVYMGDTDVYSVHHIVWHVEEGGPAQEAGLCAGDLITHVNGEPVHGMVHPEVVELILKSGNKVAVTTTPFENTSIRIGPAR
# [18] = molecular target: T7, MPDZ_10, O75970
# [19] = molecular target: T8, MPDZ_12, O75970
# [20] = molecular target: T9, NHERF3_4, Q5T2W1
# [21] = molecular target: T10, PARD3B_1, Q8TEW8
# [22] = molecular target: T11, PCLO, Q9Y6V0
# [23] = molecular target: T12, SIPA1L2, Q9P2F8
# [24] = molecular target: T13, SNTB1, Q13884
# [25] = plain residues with an end cap or a label only (N-terminal biotin on a linker: ahx)
# [26] = plain residues with an end cap or a label only (N-terminal biotin on a linker: ado-ado)
binder,measurement,setting,value
"EKQAKGDTEF [CACYBP, Q9HB71]",pKd,[1]; [25],below the threshold
same,pKd,[2]; [25],below the threshold
same,pKd,[3]; [25],below the threshold
same,pKd,[4]; [25],below the threshold
same,pKd,[5]; [25],below the threshold
same,pKd,[6]; [25],below the threshold
same,pKd,[7]; [25],below the threshold
same,pKd,[8]; [25],below the threshold
same,pKd,[9]; [25],below the threshold
same,pKd,[10]; [25],below the threshold
same,pKd,[11]; [25],below the threshold
same,pKd,[12]; [25],below the threshold
same,pKd,[13]; [25],below the threshold
same,pKd,[14]; [25],below the threshold
same,pKd,[15]; [25],below the threshold
same,pKd,[16]; [25],below the threshold
same,pKd,[17]; [25],below the threshold
same,pKd,[18]; [25],below the threshold
same,pKd,[19]; [25],below the threshold
same,pKd,[20]; [25],below the threshold
same,pKd,[21]; [25],below the threshold
same,pKd,[22]; [25],below the threshold
same,pKd,[23]; [25],below the threshold
same,pKd,[24]; [25],below the threshold
"RDPPAEWTRV [PTPN18, Q99952]",pKd,[1]; [26],3.95
same,pKd,[2]; [26],4.38
same,pKd,[3]; [26],below the threshold
same,pKd,[4]; [26],4.26
same,pKd,[5]; [26],below the threshold
same,pKd,[6]; [26],below the threshold
same,pKd,[7]; [26],below the threshold
same,pKd,[8]; [26],below the threshold
same,pKd,[9]; [26],below the threshold
same,pKd,[10]; [26],3.6
same,pKd,[11]; [26],below the threshold
same,pKd,[12]; [26],4.02
same,pKd,[13]; [26],3.68
same,pKd,[14]; [26],below the threshold
same,pKd,[15]; [26],4.46
same,pKd,[16]; [26],4.09
same,pKd,[17]; [26],4.97
same,pKd,[18]; [26],below the threshold
same,pKd,[19]; [26],3.66
same,pKd,[20]; [26],below the threshold
same,pKd,[21]; [26],4.03
same,pKd,[22]; [26],below the threshold
same,pKd,[23]; [26],below the threshold
same,pKd,[24]; [26],4.37
"VLYPREGTEV [FOXI1, Q12951]",pKd,[1]; [26],4
same,pKd,[2]; [26],4.54
same,pKd,[3]; [26],below the threshold
same,pKd,[4]; [26],4.62
same,pKd,[5]; [26],3.86
same,pKd,[6]; [26],below the threshold
same,pKd,[7]; [26],below the threshold
same,pKd,[8]; [26],below the threshold
same,pKd,[9]; [26],below the threshold
same,pKd,[10]; [26],below the threshold
same,pKd,[11]; [26],3.72
same,pKd,[12]; [26],3.52
same,pKd,[13]; [26],below the threshold
same,pKd,[14]; [26],below the threshold
same,pKd,[15]; [26],below the threshold
same,pKd,[16]; [26],4.46
same,pKd,[17]; [26],4.74
same,pKd,[18]; [26],3.49
same,pKd,[19]; [26],below the threshold
same,pKd,[20]; [26],below the threshold
same,pKd,[21]; [26],below the threshold
same,pKd,[22]; [26],below the threshold
same,pKd,[23]; [26],below the threshold
same,pKd,[24]; [26],3.97

# From article PMC9482650, “Quantitative fragmentomics allow affinity mapping of interactomes” (Nature Communications, 2022)
